Here are results for ten molecules from patent US20040260068A1 (published 2004).

Assay [1] concerns the target T1, human IL-12 (human, UniProt P29459 23-219; P29460 23-328).
T1 construct: also called human IL-12 p70 heterodimer; IL-12 p75
T1 sequence (looked up) 1: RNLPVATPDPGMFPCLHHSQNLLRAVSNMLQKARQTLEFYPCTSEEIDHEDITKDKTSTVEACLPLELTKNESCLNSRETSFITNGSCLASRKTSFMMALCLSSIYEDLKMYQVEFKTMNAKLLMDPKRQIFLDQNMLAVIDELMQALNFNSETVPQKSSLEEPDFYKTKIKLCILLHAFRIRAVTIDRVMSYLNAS
T1 sequence (looked up) 2: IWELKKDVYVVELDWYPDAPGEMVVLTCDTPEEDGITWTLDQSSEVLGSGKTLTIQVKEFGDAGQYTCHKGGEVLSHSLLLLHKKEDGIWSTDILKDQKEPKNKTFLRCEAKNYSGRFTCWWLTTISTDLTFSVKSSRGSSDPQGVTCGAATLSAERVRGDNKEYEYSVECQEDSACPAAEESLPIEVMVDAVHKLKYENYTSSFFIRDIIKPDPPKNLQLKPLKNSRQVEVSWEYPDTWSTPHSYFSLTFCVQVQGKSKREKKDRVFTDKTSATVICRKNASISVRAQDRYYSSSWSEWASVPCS
Nature of the assay: competition ELISA on coated human IL-12; competitor of biotinylated ChDD2. On the procedure:
(§1) ELISA plates were incubated at room temperature for 2 hr. After washing the wells with Washing Buffer, 0.5 μg/ml HRP-conjugated streptavidin (Pierce) was added to each well. Color development was performed with TMB substrate (Kirkegaard & Perry Laboratories).
For orientation: An ELISA detects its analyte on a solid surface through an enzyme-linked reagent.

The target of assay [2] is T2, mouse IL-12 (mouse, UniProt P43431 23-215; P43432 23-335).
T2 sequence (looked up) 1: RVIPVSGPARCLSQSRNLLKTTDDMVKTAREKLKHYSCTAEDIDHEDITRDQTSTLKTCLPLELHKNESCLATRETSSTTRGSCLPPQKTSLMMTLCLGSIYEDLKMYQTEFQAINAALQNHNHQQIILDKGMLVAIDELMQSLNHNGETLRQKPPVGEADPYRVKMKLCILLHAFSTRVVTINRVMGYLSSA
T2 sequence (looked up) 2: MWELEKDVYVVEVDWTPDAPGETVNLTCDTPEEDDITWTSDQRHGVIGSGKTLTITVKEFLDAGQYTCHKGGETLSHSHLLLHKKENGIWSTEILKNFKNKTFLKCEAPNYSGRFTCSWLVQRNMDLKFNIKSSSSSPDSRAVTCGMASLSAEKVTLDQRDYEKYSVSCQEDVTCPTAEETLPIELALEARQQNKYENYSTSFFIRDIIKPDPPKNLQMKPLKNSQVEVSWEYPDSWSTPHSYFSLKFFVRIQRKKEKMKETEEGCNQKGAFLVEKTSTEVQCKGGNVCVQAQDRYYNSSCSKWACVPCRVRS
Nature of the assay: competition ELISA on coated mouse IL-12; competitor of biotinylated ChDD2. As for the experimental part: MaxiSorp plates (Nalge Nunc, Rochester N.Y.) were coated with 0.1 μg/ml human or mouse IL-12. […] ELISA plates were incubated at room temperature for 2 hr. After washing the wells with Washing Buffer, 0.5 μg/ml HRP-conjugated streptavidin (Pierce) was added to each well. Color development was performed with TMB substrate (Kirkegaard & Perry Laboratories).

Assay [3] deals with T2, mouse IL-12. Nature of the assay: competition ELISA on coated mouse IL-12; competitor of biotinylated humanized B1. On the procedure:
(§2) MaxiSorp plates were coated with 100 μl of 0.1 μg/ml human or mouse IL-12 (R&D) and blocked with Superblock blocking buffer. […] As a background control, 100 μl of ELISA Buffer was used. ELISA plates were incubated at room temperature for 2 hr. After washing the wells with Washing Buffer (PBS containing 0.1 % Tween 20), 100 μl of 1 μg/ml HRP-conjugated streptavidin (Pierce) in ELISA buffer was added to each well. ELISA plates were incubated at room temperature for 30 min and washed with Washing Buffer. For color development, 100 μI/well of ABTS substrate was added. Color development was stopped by adding 100 μl/well of 2% oxalic acid. Absorbance was read at 415 nm.

Assay [4] concerns the target T1, human IL-12. Nature of the assay: competition ELISA on coated human IL-12; competitor of biotinylated humanized B1. On the procedure:
as §2

Assay [5] deals with T3, chicken lysozyme (chicken, UniProt P00698 19-147).
T3 construct: Control antigen; also called hen egg lysozyme
T3 sequence (P00698 19-147): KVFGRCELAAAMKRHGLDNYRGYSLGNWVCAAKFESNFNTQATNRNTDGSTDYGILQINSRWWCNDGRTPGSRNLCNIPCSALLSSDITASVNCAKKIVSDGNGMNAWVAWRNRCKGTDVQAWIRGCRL
Nature of the assay: ELISA on coated protein. On the procedure: (§3) For binding to various proteins, ELISA plates were coated with chicken lysozyme (Sigma), human globin (Sigma), bovine albumin (Sigma), and concanavalin A (Pharmacia) as well as human and mouse IL-12 (R&D) at 0.1 μg/ml in 0.2 M sodium carbonate buffer (pH 9.4) and blocked with SuperBlock buffer (Pierce).

For assay [6], the target named is T4, concanavalin A (UniProt P02866 30-281).
T4 construct: Control antigen
Nature of the assay: ELISA on coated protein. As for the experimental part: as §3

The target in assay [7] is T5, bovine albumin (bovine, UniProt P02769 25-607).
T5 construct: Control antigen
T5 sequence (P02769 25-607 limits assumed): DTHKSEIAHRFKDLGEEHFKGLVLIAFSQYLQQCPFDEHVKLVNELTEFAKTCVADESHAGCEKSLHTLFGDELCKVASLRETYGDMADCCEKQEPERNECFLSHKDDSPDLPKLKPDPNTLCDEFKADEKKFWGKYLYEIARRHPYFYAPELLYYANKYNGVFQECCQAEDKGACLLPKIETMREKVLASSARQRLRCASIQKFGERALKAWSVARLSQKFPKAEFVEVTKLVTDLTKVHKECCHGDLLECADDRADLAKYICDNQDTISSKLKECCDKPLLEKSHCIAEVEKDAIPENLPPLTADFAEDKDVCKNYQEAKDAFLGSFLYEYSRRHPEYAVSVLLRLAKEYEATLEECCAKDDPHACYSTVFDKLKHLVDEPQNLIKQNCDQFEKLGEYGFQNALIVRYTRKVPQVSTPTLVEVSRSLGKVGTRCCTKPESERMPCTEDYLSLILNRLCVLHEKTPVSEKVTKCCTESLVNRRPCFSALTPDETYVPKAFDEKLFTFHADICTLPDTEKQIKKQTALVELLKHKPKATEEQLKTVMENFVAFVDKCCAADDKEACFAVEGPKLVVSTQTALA
Nature of the assay: ELISA on coated protein. As for the experimental part: as §3

Assay [8] deals with T1, human IL-12. Nature of the assay: competition ELISA on coated human IL-12. As for the experimental part:
as §1

Assay [9] deals with T2, mouse IL-12. Nature of the assay: competition ELISA on coated mouse IL-12. As for the experimental part: as §2
Assay [10] has as its target T2, mouse IL-12. Nature of the assay: competitive binding assay (competition ELISA). As for the experimental part:
as §2

Substitutions are numbered along the chain they refer to. In names and notes the source's numbering stands. Several values for one entry are separate records, joined by “and”; a condition that tells them apart may be missing. Equal entries are not always repeated.

B1: chicken-human chimeric anti-IL-12 antibody DD2 (antibody, V domains shown)
VH: AVTLDESGGGLQTPGGGLSLVCKASGFDFSNYQLQWVRQAPGKGLEWVGGIGSSGSSTYYGAAVKGRATISRDNGQSTVRLQLNNLRAEDTGTYYCTRGVSPYSCWYAGRTSYTCHAYTAGSIDAWGHGTEVIVSS
VL: ALTQPASVSANPGETVKITCPGGGIYAGRYYGYGWFQQKSPGSAPVTVIYSNDKRPSDIPSRFSGSASGSTATLTITGVQADDEAVYFCGSHDSNVGVFGAGTTLTVL
notes: made in Sp2/0; also called ChDD2; chimeric DD2
As a reminder, the IC50 is the concentration that gives 50% inhibition. Take B1: the IC50 is 4 mg/L in assay [1] and 2.4 mg/L in assay [2].

B2: chimeric B1 IgG1/λ antibody (chicken-human chimeric anti-IL-12 antibody B1) (antibody, V domains shown)
VH: AVTLDESGGGLQTPGGALSLVCKASGFTFSSYSMLWVRQAPGKGLEYVAEITNTGRTRRYGAAVKGRATISRDNGQSTVRLQLNNLRAEDTGTYYCARSSVYSCSYGWCAGNINAWGHGTEVIVSS
VL: ALTQPASVSANLGGTVKITCSGGYSGYYGWYQQKSPGSAPVTVIYDNTRRPSDIPSRFSGSKSGSTATLTITGVQADDEAVYFCGTWDSSRVGIFGAGTTLTVL
notes: made in Sp2/0; also called ChB1
For B2, the IC50 in assay [3] was 13 mg/L; in [4] it was 8.3 mg/L. Further, the binding result in [5], in [6] and in [7] was “no binding (tested: 0.01 µg/ml antibody)” in each case.

B3: humanized DD2 IgG1/λ monoclonal antibody (antibody, V domains shown)
VH: EVQLVESGGGLVQPGGSLRLSCAASGFDFSNYQLQWVRQAPGKGLEWVGGIGSSGSSTYYGAAVKGRATISRDNAKNSVYLQMNSLRAEDTAVYYCTRGVSPYSCWYAGRTSYTCHAYTAGSIDAWGQGTLVTVSS
VL: SSELTQDPAVSVALGQTVRITCPGGGIYAGRYYGYGWFQQKPGQAPVTVIYSNDKRPSDIPSRFSGSASGSTASLTITGAQAEDEADYYCGSHDSNVGVFGGGTKLTVL
notes: also called HuDD2; wild-type HuDD2
As to B3, the IC50 is 4.2 mg/L and 3.5 mg/L in assay [1]; 2.4 mg/L in [2].

B4: HuDD2 Vλ S69N mutant (antibody, IgG1, V domains shown)
VH: B3 VH
VL: B3 VL with S71N
notes: IgG1/λ as HuDD2; Kabat numbering
Turning to B4, the IC50 in assay [1] was determined as 4.3 mg/L.

B5: HuDD2 Vλ T46L mutant (antibody, IgG1, V domains shown)
VH: B3 VH
VL: B3 VL with T48L
notes: as for B4
Consider B5, for which the “fold reduction of binding affinity against wild-type HuDD2” value in [8] was found to be 4.6 fold. The concentration for half-maximal inhibition (IC50) in [1] was determined as 16.1 mg/L.

B6: HuDD2 VH T93A mutant (antibody, IgG1, name in Kabat numbering, V domains shown)
VH: B3 VH with T97A
VL: B3 VL
notes: as for B4
Take B6: the half-inhibitory concentration (IC50) in assay [1] was 3.3 mg/L.

B7: HuDD2 Vλ A66S mutant (antibody, IgG1, V domains shown)
VH: B3 VH
VL: B3 VL with A68S
notes: as for B4
With B7, the concentration for half-maximal inhibition (IC50) in assay [1] turned out to be 3.4 mg/L.

B8: HuDD2 VH V78L mutant (antibody, IgG1, name in Kabat numbering, V domains shown)
VH: B3 VH with V79L
VL: B3 VL
notes: IgG1/λ as HuDD2; H78 (Kabat) is the position named as the one tested; also called V79L
Regarding B8, in assay [8], the “fold reduction of binding affinity against wild-type HuDD2” value worked out at 2 fold. Further, the IC50 in assay [1] was 7 mg/L.

B9: HuDD2 VH A67F mutant (antibody, IgG1, name in Kabat numbering, V domains shown)
VH: B3 VH with A68F
VL: B3 VL
notes: IgG1/λ as HuDD2
Take B9: the 50% inhibitory concentration (IC50) in assay [1] turned out to be 2.1 mg/L.

B10: humanized B1 IgG1/λ monoclonal antibody (antibody, V domains shown)
VH: EVQLVESGGGLVQPGGSLRLSCAASGFTFSSYSMLWVRQAPGKGLEYVAEITNTGRTRRYGAAVKGRATISRDNAKNTVYLQMNSLRAEDTAVYYCARSSVYSCSYGWCAGNINAWGQGTLVTVSS
VL: SSELTQPPSVSVALGQTVRITCSGGYSGYYGWYQQKPGQAPVTVIYDNTRRPSDIPSRFSGSKSGSTATLTITGVQAEDEADYYCGTWDSSRVGIFGGGTKLTVL
notes: made in Sp2/0; also called HuB1
Regarding B10, the “fold decrease in relative binding against chimeric B1 (fold)” value in assay [9] is approximately 2.1 fold. Besides, the results for the IC50 in assay [3] and in assay [4] were 6.2 mg/L and 5.8 mg/L, respectively. For the same molecule, the “fold better binding than chimeric B1” value in assay [8] was approximately 1.4 fold. For the same molecule, in assay [10], the “fold better affinity than chimeric B1” value was approximately 2 fold. Further, the binding result in [5], in assay [6] and in assay [7] was “no binding (tested: 0.01 µg/ml antibody)” throughout.
